Reference: patent publication US20230357348A1 (AstraZeneca / MedImmune, published 2023)
Starred links: 1 amine or outer side, 2 acyl side, 3 side chain; linkers in the order of their positions; H or OH if unused. Non-standard residues stand in square brackets, D forms with d. Groups on a side chain read outwards from the residue. No end group written: not given here. *: point of attachment. C18 diacid = O=C(O)CCCCCCCCCCCCCCCCC(=O)*; γGlu = O=C(O)[C@H](CCC(=O)[*:2])N[*:1]; αMeF = C[C@](N)(Cc1ccccc1)C(=O)O; AEEA = NCCOCCOCC(=O)O; Aib = CC(C)(N)C(=O)O

B1: Peptide 15 (peptide)
peptide: H[Aib]HGS[αMeF]TSDVSK[αMeF]LDSK([AEEA-AEEA-γGlu-C18 diacid])AARD[αMeF]VE[Aib]IANT-NH2
modifications: N-terminus assumed
SMILES: CC[C@H](C)[C@H](NC(=O)C(C)(C)NC(=O)[C@H](CCC(=O)O)NC(=O)[C@@H](NC(=O)[C@](C)(Cc1ccccc1)NC(=O)[C@H](CC(=O)O)NC(=O)[C@H](CCCNC(=N)N)NC(=O)[C@H](C)NC(=O)[C@H](C)NC(=O)[C@H](CCCCNC(=O)COCCOCCNC(=O)COCCOCCNC(=O)CC[C@H](NC(=O)CCCCCCCCCCCCCCCCC(=O)O)C(=O)O)NC(=O)[C@H](CO)NC(=O)[C@H](CC(=O)O)NC(=O)[C@H](CC(C)C)NC(=O)[C@](C)(Cc1ccccc1)NC(=O)[C@H](CCCCN)NC(=O)[C@H](CO)NC(=O)[C@@H](NC(=O)[C@H](CC(=O)O)NC(=O)[C@H](CO)NC(=O)[C@@H](NC(=O)[C@](C)(Cc1ccccc1)NC(=O)[C@H](CO)NC(=O)CNC(=O)[C@H](Cc1c[nH]cn1)NC(=O)C(C)(C)NC(=O)[C@@H](N)Cc1c[nH]cn1)[C@@H](C)O)C(C)C)C(C)C)C(=O)N[C@@H](C)C(=O)N[C@@H](CC(N)=O)C(=O)N[C@H](C(N)=O)[C@@H](C)O
B2: Peptide 18 (peptide)
peptide: H[Aib]HGS[αMeF]TSDVSK[αMeF]LDSK([AEEA-AEEA-γGlu-C18 diacid])AARD[αMeF]VQSIANT-NH2
modifications: N-terminus assumed
SMILES: CC[C@H](C)[C@H](NC(=O)[C@H](CO)NC(=O)[C@H](CCC(N)=O)NC(=O)[C@@H](NC(=O)[C@](C)(Cc1ccccc1)NC(=O)[C@H](CC(=O)O)NC(=O)[C@H](CCCNC(=N)N)NC(=O)[C@H](C)NC(=O)[C@H](C)NC(=O)[C@H](CCCCNC(=O)COCCOCCNC(=O)COCCOCCNC(=O)CC[C@H](NC(=O)CCCCCCCCCCCCCCCCC(=O)O)C(=O)O)NC(=O)[C@H](CO)NC(=O)[C@H](CC(=O)O)NC(=O)[C@H](CC(C)C)NC(=O)[C@](C)(Cc1ccccc1)NC(=O)[C@H](CCCCN)NC(=O)[C@H](CO)NC(=O)[C@@H](NC(=O)[C@H](CC(=O)O)NC(=O)[C@H](CO)NC(=O)[C@@H](NC(=O)[C@](C)(Cc1ccccc1)NC(=O)[C@H](CO)NC(=O)CNC(=O)[C@H](Cc1c[nH]cn1)NC(=O)C(C)(C)NC(=O)[C@@H](N)Cc1c[nH]cn1)[C@@H](C)O)C(C)C)C(C)C)C(=O)N[C@@H](C)C(=O)N[C@@H](CC(N)=O)C(=O)N[C@H](C(N)=O)[C@@H](C)O
B3: Peptide 1 (peptide)
peptide: HSQGS[αMeF]TSDVSK[Aib]LDSK([AEEA-AEEA-γGlu-C18 diacid])AAQD[αMeF]VQ[Aib]IAN-NH2
modifications: N-terminus assumed
SMILES: CC[C@H](C)[C@H](NC(=O)C(C)(C)NC(=O)[C@H](CCC(N)=O)NC(=O)[C@@H](NC(=O)[C@](C)(Cc1ccccc1)NC(=O)[C@H](CC(=O)O)NC(=O)[C@H](CCC(N)=O)NC(=O)[C@H](C)NC(=O)[C@H](C)NC(=O)[C@H](CCCCNC(=O)COCCOCCNC(=O)COCCOCCNC(=O)CC[C@H](NC(=O)CCCCCCCCCCCCCCCCC(=O)O)C(=O)O)NC(=O)[C@H](CO)NC(=O)[C@H](CC(=O)O)NC(=O)[C@H](CC(C)C)NC(=O)C(C)(C)NC(=O)[C@H](CCCCN)NC(=O)[C@H](CO)NC(=O)[C@@H](NC(=O)[C@H](CC(=O)O)NC(=O)[C@H](CO)NC(=O)[C@@H](NC(=O)[C@](C)(Cc1ccccc1)NC(=O)[C@H](CO)NC(=O)CNC(=O)[C@H](CCC(N)=O)NC(=O)[C@H](CO)NC(=O)[C@@H](N)Cc1c[nH]cn1)[C@@H](C)O)C(C)C)C(C)C)C(=O)N[C@@H](C)C(=O)N[C@@H](CC(N)=O)C(N)=O
B4: Peptide 17 (peptide)
peptide: H[Aib]HGS[αMeF]TSDVSK[αMeF]LDSK([AEEA-AEEA-γGlu-C18 diacid])AARD[αMeF]VESIANT-NH2
modifications: N-terminus assumed
SMILES: CC[C@H](C)[C@H](NC(=O)[C@H](CO)NC(=O)[C@H](CCC(=O)O)NC(=O)[C@@H](NC(=O)[C@](C)(Cc1ccccc1)NC(=O)[C@H](CC(=O)O)NC(=O)[C@H](CCCNC(=N)N)NC(=O)[C@H](C)NC(=O)[C@H](C)NC(=O)[C@H](CCCCNC(=O)COCCOCCNC(=O)COCCOCCNC(=O)CC[C@H](NC(=O)CCCCCCCCCCCCCCCCC(=O)O)C(=O)O)NC(=O)[C@H](CO)NC(=O)[C@H](CC(=O)O)NC(=O)[C@H](CC(C)C)NC(=O)[C@](C)(Cc1ccccc1)NC(=O)[C@H](CCCCN)NC(=O)[C@H](CO)NC(=O)[C@@H](NC(=O)[C@H](CC(=O)O)NC(=O)[C@H](CO)NC(=O)[C@@H](NC(=O)[C@](C)(Cc1ccccc1)NC(=O)[C@H](CO)NC(=O)CNC(=O)[C@H](Cc1c[nH]cn1)NC(=O)C(C)(C)NC(=O)[C@@H](N)Cc1c[nH]cn1)[C@@H](C)O)C(C)C)C(C)C)C(=O)N[C@@H](C)C(=O)N[C@@H](CC(N)=O)C(=O)N[C@H](C(N)=O)[C@@H](C)O
B5: Peptide 16 (peptide)
peptide: H[Aib]HGS[αMeF]TSDVSK[αMeF]LDSK([AEEA-AEEA-γGlu-C18 diacid])AARD[αMeF]IA[Aib]IANT-NH2
modifications: N-terminus assumed
SMILES: CC[C@H](C)[C@H](NC(=O)C(C)(C)NC(=O)[C@H](C)NC(=O)[C@@H](NC(=O)[C@](C)(Cc1ccccc1)NC(=O)[C@H](CC(=O)O)NC(=O)[C@H](CCCNC(=N)N)NC(=O)[C@H](C)NC(=O)[C@H](C)NC(=O)[C@H](CCCCNC(=O)COCCOCCNC(=O)COCCOCCNC(=O)CC[C@H](NC(=O)CCCCCCCCCCCCCCCCC(=O)O)C(=O)O)NC(=O)[C@H](CO)NC(=O)[C@H](CC(=O)O)NC(=O)[C@H](CC(C)C)NC(=O)[C@](C)(Cc1ccccc1)NC(=O)[C@H](CCCCN)NC(=O)[C@H](CO)NC(=O)[C@@H](NC(=O)[C@H](CC(=O)O)NC(=O)[C@H](CO)NC(=O)[C@@H](NC(=O)[C@](C)(Cc1ccccc1)NC(=O)[C@H](CO)NC(=O)CNC(=O)[C@H](Cc1c[nH]cn1)NC(=O)C(C)(C)NC(=O)[C@@H](N)Cc1c[nH]cn1)[C@@H](C)O)C(C)C)[C@@H](C)CC)C(=O)N[C@@H](C)C(=O)N[C@@H](CC(N)=O)C(=O)N[C@H](C(N)=O)[C@@H](C)O

target: human GLP-1 receptor (hGLP-1R) (human, UniProt P43220 24-463); experiment: cell-based or functional assay

Binder	hGLP-1R EC50 (pM)
B1	33.1
B2	20.5
B3	3200
B4	45
B5	33

target: human glucagon receptor (hGCGR) (human, UniProt P47871 26-477); experiment: cell-based or functional assay
Sequence (P47871 26-477): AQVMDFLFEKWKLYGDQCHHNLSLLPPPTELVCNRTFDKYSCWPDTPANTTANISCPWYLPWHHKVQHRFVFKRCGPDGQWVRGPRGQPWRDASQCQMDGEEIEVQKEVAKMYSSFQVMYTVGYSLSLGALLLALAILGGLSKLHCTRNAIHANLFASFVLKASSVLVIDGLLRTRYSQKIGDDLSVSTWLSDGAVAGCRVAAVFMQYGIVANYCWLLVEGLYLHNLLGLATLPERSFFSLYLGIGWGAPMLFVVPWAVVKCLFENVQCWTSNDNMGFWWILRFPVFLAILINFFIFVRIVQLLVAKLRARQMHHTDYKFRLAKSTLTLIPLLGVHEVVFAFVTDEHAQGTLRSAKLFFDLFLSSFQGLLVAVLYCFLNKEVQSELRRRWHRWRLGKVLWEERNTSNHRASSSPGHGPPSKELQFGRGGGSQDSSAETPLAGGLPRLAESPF

Binder	hGluc-R EC50 (pM)
B1	61.4
B2	122
B3	> 27100
B4	135
B5	105
